# Reference: US12295987B2, “Method of using a GIP/GLP1 co-agonist for diabetes” (Eli Lilly and Company, priority 2018, dated 2025)
# Numbered stars: 1 amine (or outer) side, 2 acyl side, 3 side chain; on linkers, the order of the positions; unused ones are H or OH. Square brackets hold non-standard residues; d marks the D form. Side chains are listed from the residue outwards. Ends that are not written are not given here. * marks the point of attachment. C20 diacid = O=C(O)CCCCCCCCCCCCCCCCCCC(=O)*; γGlu = O=C(O)[C@H](CCC(=O)[*:2])N[*:1]; αMeF = C[C@](N)(Cc1ccccc1)C(=O)O; αMeL = CC(C)C[C@](C)(N)C(=O)O; cTA = not defined here; AEEA = NCCOCCOCC(=O)O; Aib = CC(C)(N)C(=O)O
# Target: T1, human gastric inhibitory peptide receptor (hGIPR) (Homo sapiens, UniProt P48546)
# T1 construct: expressed in transfected cells; host or cells: HEK293
# T1 sequence (P48546 22-466): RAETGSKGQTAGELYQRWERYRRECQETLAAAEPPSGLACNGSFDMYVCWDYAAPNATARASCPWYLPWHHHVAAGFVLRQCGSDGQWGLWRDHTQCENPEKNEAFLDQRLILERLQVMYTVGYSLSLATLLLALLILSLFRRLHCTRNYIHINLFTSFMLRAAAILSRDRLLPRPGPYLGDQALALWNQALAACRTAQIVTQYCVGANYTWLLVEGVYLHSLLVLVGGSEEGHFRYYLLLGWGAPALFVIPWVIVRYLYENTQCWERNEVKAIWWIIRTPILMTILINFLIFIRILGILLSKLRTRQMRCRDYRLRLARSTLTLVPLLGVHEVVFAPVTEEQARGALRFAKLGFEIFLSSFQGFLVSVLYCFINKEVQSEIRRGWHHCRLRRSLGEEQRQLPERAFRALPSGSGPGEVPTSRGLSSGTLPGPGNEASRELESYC
# Assay: cAMP pharmacological functional assay in presence of 0.1% casein, hGIPR
# Format: cell-based
# Details: ratio of hGIPR to hGLP1R cAMP EC50 ratios
row,Substance,[hGIPR/hGLP1R] EC50 Ratio
1,"Y-Aib-EGTFTSDYSILLDKK((2-[2-(2-Amino-ethoxy)-ethoxy]-acetyl)2-(γGlu)-CO—(CH2)18—CO2H)AQ-Aib-AFIEYLI-(D-Glu)-GGPSSGAPPPS-NH2 (YXEGTFTSDYSILLDKKAQXAFIEYLIXGGPSSGAPPPS; Aib, D-Glu; K lipidated C20 diacid-γGlu-AEEA2; C-terminal amide; (2)..(2) Xaa at position 2 is Aib; MOD_RES (17)..(17) Lys at position 17 is chemically modified by conjugation of the epsilon-amino group of the Lys side chain with (2-[2-(2-amino-ethoxy)-ethoxy]-acetyl)2-(gamma-Glu)-CO-(CH2)18- CO2H; (20)..(20) Xaa at position 20 is Aib; (28)..(28) Xaa at position 28 is D-Glu; MOD_RES (39)..(39) Ser at position 39 is amidated) [Peptide 83]",4.84
2,Y-Aib-EGTFTSDYSILLDKK((2-[2-(2-Amino-ethoxy)-ethoxy]-acetyl)2-(γGlu)-CO—(CH2)18—CO2H)AQ-Aib-AFIEYLIEGG-NH2 (Y[Aib]EGTFTSDYSILLDKK([AEEA-AEEA-γGlu-C20 diacid])AQ[Aib]AFIEYLIEGG-NH2; N-terminus assumed; SMILES CC[C@H](C)[C@H](NC(=O)[C@H](CC(C)C)NC(=O)[C@H](Cc1ccc(O)cc1)NC(=O)[C@H](CCC(=O)O)NC(=O)[C@@H](NC(=O)[C@H](Cc1ccccc1)NC(=O)[C@H](C)NC(=O)C(C)(C)NC(=O)[C@H](CCC(N)=O)NC(=O)[C@H](C)NC(=O)[C@H](CCCCNC(=O)COCCOCCNC(=O)COCCOCCNC(=O)CC[C@H](NC(=O)CCCCCCCCCCCCCCCCCCC(=O)O)C(=O)O)NC(=O)[C@H](CCCCN)NC(=O)[C@H](CC(=O)O)NC(=O)[C@H](CC(C)C)NC(=O)[C@H](CC(C)C)NC(=O)[C@@H](NC(=O)[C@H](CO)NC(=O)[C@H](Cc1ccc(O)cc1)NC(=O)[C@H](CC(=O)O)NC(=O)[C@H](CO)NC(=O)[C@@H](NC(=O)[C@H](Cc1ccccc1)NC(=O)[C@@H](NC(=O)CNC(=O)[C@H](CCC(=O)O)NC(=O)C(C)(C)NC(=O)[C@@H](N)Cc1ccc(O)cc1)[C@@H](C)O)[C@@H](C)O)[C@@H](C)CC)[C@@H](C)CC)C(=O)N[C@@H](CCC(=O)O)C(=O)NCC(=O)NCC(N)=O) [Peptide 51],3.97
3,Y-Aib-EGTFTSDYSILLDKK((2-[2-(2-Amino-ethoxy)-ethoxy]-acetyl)2-(γGlu)-CO—(CH2)18—CO2H)AQ-Aib-AFIEYLIEGGPSSG-NH2 (Y[Aib]EGTFTSDYSILLDKK([AEEA-AEEA-γGlu-C20 diacid])AQ[Aib]AFIEYLIEGGPSSG-NH2; N-terminus assumed; SMILES CC[C@H](C)[C@H](NC(=O)[C@H](CC(C)C)NC(=O)[C@H](Cc1ccc(O)cc1)NC(=O)[C@H](CCC(=O)O)NC(=O)[C@@H](NC(=O)[C@H](Cc1ccccc1)NC(=O)[C@H](C)NC(=O)C(C)(C)NC(=O)[C@H](CCC(N)=O)NC(=O)[C@H](C)NC(=O)[C@H](CCCCNC(=O)COCCOCCNC(=O)COCCOCCNC(=O)CC[C@H](NC(=O)CCCCCCCCCCCCCCCCCCC(=O)O)C(=O)O)NC(=O)[C@H](CCCCN)NC(=O)[C@H](CC(=O)O)NC(=O)[C@H](CC(C)C)NC(=O)[C@H](CC(C)C)NC(=O)[C@@H](NC(=O)[C@H](CO)NC(=O)[C@H](Cc1ccc(O)cc1)NC(=O)[C@H](CC(=O)O)NC(=O)[C@H](CO)NC(=O)[C@@H](NC(=O)[C@H](Cc1ccccc1)NC(=O)[C@@H](NC(=O)CNC(=O)[C@H](CCC(=O)O)NC(=O)C(C)(C)NC(=O)[C@@H](N)Cc1ccc(O)cc1)[C@@H](C)O)[C@@H](C)O)[C@@H](C)CC)[C@@H](C)CC)C(=O)N[C@@H](CCC(=O)O)C(=O)NCC(=O)NCC(=O)N1CCC[C@H]1C(=O)N[C@@H](CO)C(=O)N[C@@H](CO)C(=O)NCC(N)=O) [Peptide 50],2.90
4,Y-Aib-EGTFTSDYSILLDSK((2-[2-(2-Amino-ethoxy)-ethoxy]-acetyl)2-(γGlu)-CO—(CH2)18—CO2H)AQ-Aib-AFIEYLIEGGPSSGAPPPS-NH2 (Y[Aib]EGTFTSDYSILLDSK([AEEA-AEEA-γGlu-C20 diacid])AQ[Aib]AFIEYLIEGGPSSGAPPPS-NH2; N-terminus assumed; SMILES CC[C@H](C)[C@H](NC(=O)[C@H](CC(C)C)NC(=O)[C@H](Cc1ccc(O)cc1)NC(=O)[C@H](CCC(=O)O)NC(=O)[C@@H](NC(=O)[C@H](Cc1ccccc1)NC(=O)[C@H](C)NC(=O)C(C)(C)NC(=O)[C@H](CCC(N)=O)NC(=O)[C@H](C)NC(=O)[C@H](CCCCNC(=O)COCCOCCNC(=O)COCCOCCNC(=O)CC[C@H](NC(=O)CCCCCCCCCCCCCCCCCCC(=O)O)C(=O)O)NC(=O)[C@H](CO)NC(=O)[C@H](CC(=O)O)NC(=O)[C@H](CC(C)C)NC(=O)[C@H](CC(C)C)NC(=O)[C@@H](NC(=O)[C@H](CO)NC(=O)[C@H](Cc1ccc(O)cc1)NC(=O)[C@H](CC(=O)O)NC(=O)[C@H](CO)NC(=O)[C@@H](NC(=O)[C@H](Cc1ccccc1)NC(=O)[C@@H](NC(=O)CNC(=O)[C@H](CCC(=O)O)NC(=O)C(C)(C)NC(=O)[C@@H](N)Cc1ccc(O)cc1)[C@@H](C)O)[C@@H](C)O)[C@@H](C)CC)[C@@H](C)CC)C(=O)N[C@@H](CCC(=O)O)C(=O)NCC(=O)NCC(=O)N1CCC[C@H]1C(=O)N[C@@H](CO)C(=O)N[C@@H](CO)C(=O)NCC(=O)N[C@@H](C)C(=O)N1CCC[C@H]1C(=O)N1CCC[C@H]1C(=O)N1CCC[C@H]1C(=O)N[C@@H](CO)C(N)=O) [Peptide 9],2.45
5,Y-Aib-EGTFTSDYSK((2-[2-(2-Amino-ethoxy)-ethoxy]-acetyl)2-(γGlu)-CO—(CH2)18—CO2H)LLDKIAQ-Aib-AFIEYLIEGGPSSGAPPPS-NH2 (Y[Aib]EGTFTSDYSK([AEEA-AEEA-γGlu-C20 diacid])LLDKIAQ[Aib]AFIEYLIEGGPSSGAPPPS-NH2; N-terminus assumed; SMILES CC[C@H](C)[C@H](NC(=O)[C@H](CCCCN)NC(=O)[C@H](CC(=O)O)NC(=O)[C@H](CC(C)C)NC(=O)[C@H](CC(C)C)NC(=O)[C@H](CCCCNC(=O)COCCOCCNC(=O)COCCOCCNC(=O)CC[C@H](NC(=O)CCCCCCCCCCCCCCCCCCC(=O)O)C(=O)O)NC(=O)[C@H](CO)NC(=O)[C@H](Cc1ccc(O)cc1)NC(=O)[C@H](CC(=O)O)NC(=O)[C@H](CO)NC(=O)[C@@H](NC(=O)[C@H](Cc1ccccc1)NC(=O)[C@@H](NC(=O)CNC(=O)[C@H](CCC(=O)O)NC(=O)C(C)(C)NC(=O)[C@@H](N)Cc1ccc(O)cc1)[C@@H](C)O)[C@@H](C)O)C(=O)N[C@@H](C)C(=O)N[C@@H](CCC(N)=O)C(=O)NC(C)(C)C(=O)N[C@@H](C)C(=O)N[C@@H](Cc1ccccc1)C(=O)N[C@H](C(=O)N[C@@H](CCC(=O)O)C(=O)N[C@@H](Cc1ccc(O)cc1)C(=O)N[C@@H](CC(C)C)C(=O)N[C@H](C(=O)N[C@@H](CCC(=O)O)C(=O)NCC(=O)NCC(=O)N1CCC[C@H]1C(=O)N[C@@H](CO)C(=O)N[C@@H](CO)C(=O)NCC(=O)N[C@@H](C)C(=O)N1CCC[C@H]1C(=O)N1CCC[C@H]1C(=O)N1CCC[C@H]1C(=O)N[C@@H](CO)C(N)=O)[C@@H](C)CC)[C@@H](C)CC) [Peptide 25],3.23
6,Y-Aib-cTA-GT-αMeF-TSDYSI-αMeL-LDEK((2-[2-(2-Amino-ethoxy)-ethoxy]-acetyl)2-(γGlu)-CO—(CH2)18—CO2H)AQ-Aib-AFIEYLIEGGPSSGAPPPS-NH2 (Y[Aib][cTA]GT[αMeF]TSDYSI[αMeL]LDEK([AEEA-AEEA-γGlu-C20 diacid])AQ[Aib]AFIEYLIEGGPSSGAPPPS-NH2; reading uncertain; also: printed as Y-Aib-cTA-GT-αMeF-TSDYSI-αMeL-LDEK((2-[2-(2-Amino-ethoxy)-ethoxy]-acetyl)2-(γGlu)-CO—(CH2)18—CO2H)AQ-Aib-AFIEYLIEGGPSSGAPPPS-NH2) [Peptide 120],5.24
7,Y-Pro-EGTFTSDYSILLDKK((2-[2-(2-Amino-ethoxy)-ethoxy]-acetyl)2-(γGlu)-CO—(CH2)18—CO2H)AQ-Aib-AFIEYLIEGGPSSGAPPPS-NH2 (YPEGTFTSDYSILLDKK([AEEA-AEEA-γGlu-C20 diacid])AQ[Aib]AFIEYLIEGGPSSGAPPPS-NH2; N-terminus assumed; SMILES CC[C@H](C)[C@H](NC(=O)[C@H](CC(C)C)NC(=O)[C@H](Cc1ccc(O)cc1)NC(=O)[C@H](CCC(=O)O)NC(=O)[C@@H](NC(=O)[C@H](Cc1ccccc1)NC(=O)[C@H](C)NC(=O)C(C)(C)NC(=O)[C@H](CCC(N)=O)NC(=O)[C@H](C)NC(=O)[C@H](CCCCNC(=O)COCCOCCNC(=O)COCCOCCNC(=O)CC[C@H](NC(=O)CCCCCCCCCCCCCCCCCCC(=O)O)C(=O)O)NC(=O)[C@H](CCCCN)NC(=O)[C@H](CC(=O)O)NC(=O)[C@H](CC(C)C)NC(=O)[C@H](CC(C)C)NC(=O)[C@@H](NC(=O)[C@H](CO)NC(=O)[C@H](Cc1ccc(O)cc1)NC(=O)[C@H](CC(=O)O)NC(=O)[C@H](CO)NC(=O)[C@@H](NC(=O)[C@H](Cc1ccccc1)NC(=O)[C@@H](NC(=O)CNC(=O)[C@H](CCC(=O)O)NC(=O)[C@@H]1CCCN1C(=O)[C@@H](N)Cc1ccc(O)cc1)[C@@H](C)O)[C@@H](C)O)[C@@H](C)CC)[C@@H](C)CC)C(=O)N[C@@H](CCC(=O)O)C(=O)NCC(=O)NCC(=O)N1CCC[C@H]1C(=O)N[C@@H](CO)C(=O)N[C@@H](CO)C(=O)NCC(=O)N[C@@H](C)C(=O)N1CCC[C@H]1C(=O)N1CCC[C@H]1C(=O)N1CCC[C@H]1C(=O)N[C@@H](CO)C(N)=O) [Peptide 88],4.27
